By Kd is commonly meant the free concentration of one partner at which half of the binding sites on the other are occupied at equilibrium, for simple one-to-one binding. Low readings indicate higher affinity, high ones lower affinity.

For 19 molecules, Kd results are on record in PMC9352680, “A comprehensive thermodynamic model for RNA binding by the Saccharomyces cerevisiae Pumilio protein PUF4”.

The target in this series is T1, PUF4 RNA-binding domain (Saccharomyces cerevisiae, UniProt P25339 537-888).
T1 sequence: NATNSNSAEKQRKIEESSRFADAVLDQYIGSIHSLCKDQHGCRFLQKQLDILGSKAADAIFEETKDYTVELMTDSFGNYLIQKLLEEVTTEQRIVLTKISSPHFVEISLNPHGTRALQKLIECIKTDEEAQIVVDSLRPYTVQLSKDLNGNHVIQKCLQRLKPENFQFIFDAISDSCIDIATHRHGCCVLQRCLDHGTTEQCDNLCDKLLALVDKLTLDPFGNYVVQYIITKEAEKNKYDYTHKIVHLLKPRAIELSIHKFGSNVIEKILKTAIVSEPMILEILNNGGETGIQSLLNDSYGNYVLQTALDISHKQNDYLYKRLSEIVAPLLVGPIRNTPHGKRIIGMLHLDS
The series can be described thus: Mg; RNA-MaP; 20 mM Na-HEPES pH 7.4, 30 mM KOAc, 0.75 mM MgCl2, 0.1% Tween-20, 5% glycerol, 0.1 mg/mL BSA, 2 mM DTT; 25 C; 0.0125-409.6 nM protein. The following applies: tags: N-His6-TEV cleaved; C-SNAP kept, Cy3B-labelled; label: tethered on chip by stalled RNA polymerase.

B1: Ie_S4_P4E.1_K4.1_C4.1_H4.1_A4.1_[+5CTCTC]_F4.1_T4.1 (ssRNA)
RNA: UUUGACAACUGAUCGUUCUUUCUUGUAUCUCUCAUUAUUCUUUCUCGAUCAGUUGUCUUU
As for B1, the dissociation constant (Kd) came out at 42.8 nM.

B2: Ie_S4_P5E.1_K5.1_C5.1_H5.1_A5.1_[+5TCTC]_F5.1_T5.1 (ssRNA)
RNA: UUUGACAACUGAUCGUUCUUUCUUGUAUUCUCUAUUAUUCUUUCUCGAUCAGUUGUCUUU
Turning to B2, binding was characterised by a dissociation constant (Kd) of 9.69 nM. Against the preceding molecule, the Kd is about 4.4-fold lower.

B3: Ie_S4_P4E.1_K4.1_C4.1_H4.1_A4.1_[+5CCTCT]_F4.1_T4.1 (ssRNA)
RNA: UUUGACAACUGAUCGUUCUUUCUUGUAUCCUCUAUUAUUCUUUCUCGAUCAGUUGUCUUU
On to B3, for which the Kd was 10 nM.

B4: Ie_S4_P5E.1_K5.1_C5.1_H5.1_A5.1_[+5TTCC]_F5.1_T5.1 (ssRNA)
RNA: UUUGACAACUGAUCGUUCUUUCUUGUAUUUCCUAUUAUUCUUUCUCGAUCAGUUGUCUUU
In turn, B4 yielded a Kd of 9.15 nM.

B5: Ie_S4_P4E.1_K4.1_C4.1_H4.1_A4.1_[+5CC]_F4.1_T4.1 (ssRNA)
RNA: UUUGACAACUGAUCGUUCUUUCUUGUAUCCAUUAUUCUUUCUCGAUCAGUUGUCUUU
In the case of B5, the Kd was determined as 13.5 nM.

B6: Ie_S4_P4E.1_K4.1_C4.1_H4.1_A4.1_[+6TC]_F4.1_T4.1 (ssRNA)
RNA: UUUGACAACUGAUCGUUCUUUCUUGUAUAUCUUAUUCUUUCUCGAUCAGUUGUCUUU
In turn, B6 gave a Kd of 4.82 nM.

B7: Ie_S4_P4E.1_K4.1_C4.1_H4.1_A4.1_[+5TCTC]_F4.1_T4.1 (ssRNA)
RNA: UUUGACAACUGAUCGUUCUUUCUUGUAUUCUCAUUAUUCUUUCUCGAUCAGUUGUCUUU
In turn, B7 gave a Kd of 35.8 nM.

B8: Ie_S4_P5E.1_K5.1_C5.1_H5.1_A5.1_[+5CCC]_F5.1_T5.1 (ssRNA)
RNA: UUUGACAACUGAUCGUUCUUUCUUGUAUCCCUAUUAUUCUUUCUCGAUCAGUUGUCUUU
In the case of B8, binding was characterised by a dissociation constant (Kd) of 7.89 nM. This Kd lies about 4.5-fold lower than the previous one.

B9: Ie_S4_P4E.1_K4.1_C4.1_H4.1_A4.1_[+5CCTC]_F4.1_T4.1 (ssRNA)
RNA: UUUGACAACUGAUCGUUCUUUCUUGUAUCCUCAUUAUUCUUUCUCGAUCAGUUGUCUUU
B9 had a Kd of 43.3 nM.

B10: Ie_S4_P4E.1_K4.1_C4.1_H4.1_A4.1_[+6CTCT]_F4.1_T4.1 (ssRNA)
RNA: UUUGACAACUGAUCGUUCUUUCUUGUAUACUCUUUAUUCUUUCUCGAUCAGUUGUCUUU
The molecule B10 showed a Kd of 12 nM.

B11: Ie_S4_P4E.1_K4.1_C4.1_H4.1_A4.1_[+6TCTC]_F4.1_T4.1 (ssRNA)
RNA: UUUGACAACUGAUCGUUCUUUCUUGUAUAUCUCUUAUUCUUUCUCGAUCAGUUGUCUUU
B11 came in with a Kd of 15.4 nM. This Kd and that of the molecule before are within 1.5-fold of each other.

B12: Ie_S4_P4E.1_K4.1_C4.1_H4.1_A4.1_[+5TTCC]_F4.1_T4.1 (ssRNA)
RNA: UUUGACAACUGAUCGUUCUUUCUUGUAUUUCCAUUAUUCUUUCUCGAUCAGUUGUCUUU
In turn, B12 had a Kd of 54 nM.

B13: Ib_S2_P3E.1_K3.1_C3.1_H3.1_[G2A]_A3.1_[A6G]_F3.1_T3.1 (ssRNA)
RNA: UUUGAUUAAUAUGAUAUCGUUCUUUCUUAUAUGUAUUCUUUCUCGAUAUCAUAUUAAUCUUU
Molecule B13 registered a Kd of 76.2 nM. This Kd and that of the molecule before are within 1.5-fold of each other.

B14: Ie_S4_P4E.1_K4.1_C4.1_H4.1_A4.1_[+5TCC]_F4.1_T4.1 (ssRNA)
RNA: UUUGACAACUGAUCGUUCUUUCUUGUAUUCCAUUAUUCUUUCUCGAUCAGUUGUCUUU
In turn, B14 displayed a Kd of 34.1 nM.

B15: Ie_S4_P4E.1_K4.1_C4.1_H4.1_A4.1_[+5TTC]_F4.1_T4.1 (ssRNA)
RNA: UUUGACAACUGAUCGUUCUUUCUUGUAUUUCAUUAUUCUUUCUCGAUCAGUUGUCUUU
B15 came in with a Kd of 31.3 nM.

B16: Ie_S4_P4E.1_K4.1_C4.1_H4.1_A4.1_[+6CTC]_F4.1_T4.1 (ssRNA)
RNA: UUUGACAACUGAUCGUUCUUUCUUGUAUACUCUUAUUCUUUCUCGAUCAGUUGUCUUU
On to B16, for which the Kd stood at 10.3 nM.

B17: Ie_S4_P4E.1_K4.1_C4.1_H4.1_A4.1_[+6TCT]_F4.1_T4.1 (ssRNA)
RNA: UUUGACAACUGAUCGUUCUUUCUUGUAUAUCUUUAUUCUUUCUCGAUCAGUUGUCUUU
Molecule B17 yielded a Kd of 8.73 nM.

B18: Ie_S4_P4E.1_K4.1_C4.1_H4.1_A4.1_[+6CCT]_F4.1_T4.1 (ssRNA)
RNA: UUUGACAACUGAUCGUUCUUUCUUGUAUACCUUUAUUCUUUCUCGAUCAGUUGUCUUU
In turn, B18 returned a Kd of 11.2 nM.

B19: Ie_S4_P4E.1_K4.1_C4.1_H4.1_A4.1_[+6TTT]_F4.1_T4.1 (ssRNA)
RNA: UUUGACAACUGAUCGUUCUUUCUUGUAUAUUUUUAUUCUUUCUCGAUCAGUUGUCUUU
Take B19: binding was put at a Kd of 4.94 nM.
